Legend:
[1] = molecular target: FcγRIIIA (UniProt P08637); test: assay not described; affinity relative to wild type Medi2
[2] = molecular target: FcγRIIIA (UniProt P08637); test: assay not described; affinity relative to wild type Medi3

Chain of UniProt P08637 (P08637 17-208 limits assumed): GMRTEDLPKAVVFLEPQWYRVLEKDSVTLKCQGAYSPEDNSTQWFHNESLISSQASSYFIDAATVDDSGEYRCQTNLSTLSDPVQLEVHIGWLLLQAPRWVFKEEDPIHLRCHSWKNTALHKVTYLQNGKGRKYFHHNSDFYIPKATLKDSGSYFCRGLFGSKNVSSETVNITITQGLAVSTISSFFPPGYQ

Row | fold higher binding affinity than Medi2 [1] [fold] | fold higher binding affinity than Medi3 [2] [fold] | Substance
1 | 78 | – | Medi2-V3 ("V3" Fc variant of anti-Integrin αVβ3 antibody Medi2, aspartate 239, leucine 330, glutamate 332)
2 | – | 8.8 | Medi3-V1 (Fc variant of anti-EphA2 antibody Medi3, glutamate at residue 332)

From patent publication US20080071063A1
